According to patent publication US20150335768A1 (CURATORS OF THE UNIVERSITY OF MISSOURI, published 2015):
Ends that are not written are not given here.

T1: bovine asialofetuin (bovine, UniProt P12763 19-359, desialylated glycoprotein)
T1 construct: Control protein spotted on nitrocellulose; also called ASF; AF
T1 sequence (looked up): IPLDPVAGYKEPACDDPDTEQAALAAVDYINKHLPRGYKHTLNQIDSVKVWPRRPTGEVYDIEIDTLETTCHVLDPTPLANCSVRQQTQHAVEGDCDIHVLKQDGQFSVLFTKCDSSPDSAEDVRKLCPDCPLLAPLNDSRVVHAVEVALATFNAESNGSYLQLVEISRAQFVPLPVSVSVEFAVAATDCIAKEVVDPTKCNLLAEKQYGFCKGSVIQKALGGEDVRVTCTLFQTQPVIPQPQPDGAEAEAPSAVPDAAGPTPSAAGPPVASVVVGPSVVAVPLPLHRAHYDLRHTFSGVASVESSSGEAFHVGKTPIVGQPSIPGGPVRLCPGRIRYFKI


Columns and labels:
[1] = target: T2, recombinant extracellular domain of human ErbB-2 tagged with the FLAG epitope (human, UniProt P04626 23-652); assay: quenching of intrinsic tryptophan fluorescence of soluble ErbB-2-ECD titrated with peptide, 1:1 model, global fit of three protein concentrations
T2 construct: extracellular domain; Expressed in HEK-293 cells, purified on anti-FLAG M2; Biotinylated for biopanning; also called ErbB-2-ECD; ErbB2-ECD
Protocol: The titrations were performed at 25° C. with varying amounts of peptide added to a fixed ErbB-2-ECD concentration (200-600 nM) in 2 ml of phosphate buffered saline (pH=7.4). Each measurement was collected for 5-20 sec after 1-2 min pre-equilibration. The excitation shutter remained closed during pre-equilibration of the sample and was opened only during data acquisition in order to minimize photobleaching of the sample. The fluorescence measurements were corrected for dilutions and photobleaching of ErbB-2-ECD. Values reported are an average of three independent measurements. […] The fitting procedure was performed using Origin (Microcal Software Inc).
Intrinsic tryptophan fluorescence of the protein was monitored as a function of peptide concentration. […] In the analysis, the inventors assumed a model with the stoichiometric ratio of protein to peptide equal to 1:1. The data were collected at 2 μM, 4 μM and 6 μM concentrations of the protein.

[2] = target: T2, recombinant extracellular domain of …; assay: four rounds of phage display affinity selection on biotinylated ErbB-2-ECD held on streptavidin plates
Protocol: Biotinylated antigen was incubated with streptavidin coated plates for 2 hours at 4° C. In first and second round of selection 10 μg of biotinylated antigen per plate was added, in third round amount of antigen was decreased to 1 μg, and for fourth round of selection 0.1 μg of antigen was used. Unoccupied biotin-binding sites were blocked with 0.1 mM biotin. Phage was incubated with antigen for 4 hrs at RT. Plates were washed 10 times with TPBS to remove unbound phage. Bound phage was eluted with elution buffer (0.1 M HCl, pH is adjusted to 2.2 with glycine, 1 mg/ml BSA, 0.1 mg/ml phenol red) at RT during 10 min. […] After each round, except the last, the eluate of the bound phage was propagated and used as input for the next round. Individual clones were characterized by DNA sequencing after the fourth round of selection.
A random 6-amino acid peptide bacteriophage display library was affinity selected against the ErbB-2-ECD to identify novel peptide-ligands.

bovine asialofetuin = target: T1, bovine asialofetuin; assay: immunoblot (dot blot) on nitrocellulose, streptavidin-alkaline phosphatase
Protocol: (§1) After washing three times with PBS, the membrane was incubated with 100 μM biotinylated peptide for 2 hrs at RT.

bovine serum albumin = target: T3, bovine serum albumin (bovine, UniProt P02769 25-607); assay: as above
T3 construct: Control protein spotted on nitrocellulose; also called BSA
T3 sequence (P02769 25-607 limits assumed): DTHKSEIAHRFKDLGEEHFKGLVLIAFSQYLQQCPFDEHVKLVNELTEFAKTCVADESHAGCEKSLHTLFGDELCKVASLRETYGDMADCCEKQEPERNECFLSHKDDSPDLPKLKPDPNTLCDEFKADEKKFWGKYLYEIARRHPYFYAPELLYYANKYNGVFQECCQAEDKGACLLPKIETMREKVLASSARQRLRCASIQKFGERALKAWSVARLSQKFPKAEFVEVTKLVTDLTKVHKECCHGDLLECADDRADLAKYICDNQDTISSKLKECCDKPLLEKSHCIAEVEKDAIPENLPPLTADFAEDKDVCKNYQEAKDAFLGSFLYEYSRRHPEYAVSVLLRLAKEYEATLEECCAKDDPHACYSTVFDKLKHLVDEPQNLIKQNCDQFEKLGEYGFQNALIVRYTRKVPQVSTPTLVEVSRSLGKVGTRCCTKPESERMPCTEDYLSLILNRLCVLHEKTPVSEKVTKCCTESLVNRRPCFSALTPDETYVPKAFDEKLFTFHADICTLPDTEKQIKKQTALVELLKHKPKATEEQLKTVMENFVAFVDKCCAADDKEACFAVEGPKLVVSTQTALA
Protocol: as §1

| Binder | binding result [2] | also measured |
| --- | --- | --- |
| KCCYSL (not fully specified (bridges); also: present as oxidized and reduced monomer, Chemically synthesized, not biotinylated; used in the fluorescence titration) [synthetic p6.1 peptide KCCYSL] |  | Kd [1]: 30.2 µM |
| WYAWML (Only seen as phage clone; not synthesized; not shown: minor coat protein pIII of the fUSE5 (M13/fd type) bacteriophage vector; peptide inserted near the N-terminus of mature) [phage-displayed p6.2 peptide WYAWML] | binds |  |
| WYSWLL (Only seen as phage clone; not synthesized; not shown: minor coat protein pIII of the fUSE5 (M13/fd type) bacteriophage vector; peptide inserted near the N-terminus of mature) [phage-displayed p6.3 peptide WYSWLL] | binds |  |
| KCCYSL (also: C2-C3 disulfide in the oxidized monomer fraction, Insert of the phage clones selected from the 6-mer library F3-6; not shown: minor coat protein pIII of the fUSE5 (M13/fd type) bacteriophage vector; peptide inserted near the N-terminus of mature) [phage-displayed p6.1 peptide KCCYSL] | binds |  |
| KCCYSL (cysteine pairing not given here; also: biotin label, position not given here, Biotinylated analog of KCCYSL used in immunoblot, ELISA and cell staining; also called biotinylated p6.1) [biotinylated synthetic p6.1 peptide] |  | binding result (bovine asialofetuin): no binding; binding result (bovine serum albumin): no binding |
